Test results as given in patent US20130115678.

Experiments:
Test in all cases: cleavage_in_vitro
[1] = system: T1, SspI (Sphaerotilus species); details: NEB4, 37 C, Mg2+; FI NEB1-3: 64, 16, 32
T1 sequence: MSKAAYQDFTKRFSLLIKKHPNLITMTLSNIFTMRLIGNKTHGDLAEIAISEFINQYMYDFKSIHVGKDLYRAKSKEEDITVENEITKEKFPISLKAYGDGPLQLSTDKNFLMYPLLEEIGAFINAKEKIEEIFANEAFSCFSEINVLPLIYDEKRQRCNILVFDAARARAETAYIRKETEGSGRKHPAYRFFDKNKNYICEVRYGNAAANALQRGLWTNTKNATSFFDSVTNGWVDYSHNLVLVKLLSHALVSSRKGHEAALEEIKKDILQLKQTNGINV

[2] = system: T2, SapI (Saccharopolyspora sp.); details: NEB4, 37 C, Mg2+; FI NEB1-3: 16, 64, 32
T2 sequence: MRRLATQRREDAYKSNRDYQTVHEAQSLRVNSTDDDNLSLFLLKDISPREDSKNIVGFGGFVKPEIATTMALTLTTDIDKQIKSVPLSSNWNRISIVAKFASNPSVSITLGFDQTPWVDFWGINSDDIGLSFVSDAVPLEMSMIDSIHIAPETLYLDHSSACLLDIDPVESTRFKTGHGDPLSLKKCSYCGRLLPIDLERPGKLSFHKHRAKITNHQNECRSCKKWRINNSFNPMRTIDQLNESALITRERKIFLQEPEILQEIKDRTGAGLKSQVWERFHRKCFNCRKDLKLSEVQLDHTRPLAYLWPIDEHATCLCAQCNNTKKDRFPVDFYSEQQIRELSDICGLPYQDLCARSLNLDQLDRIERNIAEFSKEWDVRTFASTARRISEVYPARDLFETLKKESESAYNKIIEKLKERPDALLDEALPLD

[3] = system: T3, NcoI (Nocardia corallina); details: NEB4, 37 C, Mg2+; FI NEB1-3: 120, 32, 120
T3 sequence: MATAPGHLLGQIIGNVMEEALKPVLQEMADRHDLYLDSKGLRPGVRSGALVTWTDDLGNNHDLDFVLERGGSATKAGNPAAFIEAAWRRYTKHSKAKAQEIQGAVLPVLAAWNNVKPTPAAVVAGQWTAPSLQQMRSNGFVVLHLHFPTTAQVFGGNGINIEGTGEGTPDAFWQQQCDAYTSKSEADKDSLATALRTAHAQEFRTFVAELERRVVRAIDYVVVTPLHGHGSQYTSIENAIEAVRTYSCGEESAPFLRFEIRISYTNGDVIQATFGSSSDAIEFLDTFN

[4] = system: BstXI-HF N65A (Bacillus stearothermophilus); details: NEB4, 55 C, Mg2+; FI NEB1-3: >=120, >=250, >=16
[5] = target: EcoRI-HF K62E (Escherichia coli RY13) (UniProt P00642); details: NEB4, 37 C, Mg2+; FI NEB1-3: 2000, 4000, 250
[6] = system: T4, SbfI (Streptomyces species Bf-61); details: NEB4, 37 C, Mg2+; FI NEB1-3: 32, 8, 8
T4 sequence: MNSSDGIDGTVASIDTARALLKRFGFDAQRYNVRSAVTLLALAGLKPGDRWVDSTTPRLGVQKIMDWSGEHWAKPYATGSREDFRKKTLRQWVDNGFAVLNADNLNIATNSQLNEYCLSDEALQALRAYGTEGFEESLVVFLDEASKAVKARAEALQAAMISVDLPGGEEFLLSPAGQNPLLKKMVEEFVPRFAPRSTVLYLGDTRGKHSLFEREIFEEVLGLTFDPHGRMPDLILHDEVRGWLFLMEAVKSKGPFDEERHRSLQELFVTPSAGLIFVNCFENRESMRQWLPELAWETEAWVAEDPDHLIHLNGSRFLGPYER

[7] = target: T5, BamHI (Bacillus amyloliquefaciens) (UniProt P23940); details: NEB4, 37 C, Mg2+; FI NEB1-3: 4, 4, 32
T5 sequence: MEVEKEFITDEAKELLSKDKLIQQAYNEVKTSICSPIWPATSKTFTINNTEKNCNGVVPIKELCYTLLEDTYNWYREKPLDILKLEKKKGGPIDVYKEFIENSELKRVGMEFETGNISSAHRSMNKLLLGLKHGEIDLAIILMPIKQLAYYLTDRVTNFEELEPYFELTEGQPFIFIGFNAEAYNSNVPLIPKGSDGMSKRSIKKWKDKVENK

[8] = system: T6, BsmBI (Bacillus stearothermophilus); details: NEB4, 55 C, Mg2+; FI NEB1-3: 1, 8, 120
T6 sequence: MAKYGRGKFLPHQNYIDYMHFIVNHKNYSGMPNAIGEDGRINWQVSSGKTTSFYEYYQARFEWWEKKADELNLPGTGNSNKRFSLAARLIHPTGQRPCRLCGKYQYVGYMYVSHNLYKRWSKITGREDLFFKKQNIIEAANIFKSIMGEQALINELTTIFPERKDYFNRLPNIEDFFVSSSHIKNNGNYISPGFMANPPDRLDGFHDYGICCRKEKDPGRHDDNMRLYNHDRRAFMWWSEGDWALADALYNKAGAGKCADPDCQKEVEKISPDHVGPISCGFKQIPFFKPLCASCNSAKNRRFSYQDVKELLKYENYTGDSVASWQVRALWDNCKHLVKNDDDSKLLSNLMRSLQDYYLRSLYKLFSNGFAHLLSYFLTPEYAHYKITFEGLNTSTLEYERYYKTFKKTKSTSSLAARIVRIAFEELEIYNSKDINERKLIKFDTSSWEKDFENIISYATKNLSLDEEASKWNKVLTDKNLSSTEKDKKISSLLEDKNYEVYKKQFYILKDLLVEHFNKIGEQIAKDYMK

lambda phage DNA gave an activity (fidelity index) [1] of 16, an activity (fidelity index) [2] of 16 and an activity (fidelity index) [3] of 32. The activity (fidelity index) [4] was over 250, the activity (fidelity index) [5] was 16000 and the activity (fidelity index) [6] was 8. For the same substance, the activity (fidelity index) [7] was 4 and the activity (fidelity index) [8] was 4.
